What was measured:
[1] = molecular target: the molecule itself; assay: native MS; pH 7.4, 100 mM ammonium acetate; AcrA^L with 0.03% DDM
[2] = molecular target: the molecule itself; assay: native MS; pH 6.0, 100 mM ammonium acetate; AcrA^L with 0.03% DDM (2x CMC); Synapt G2-Si or Q-Exactive UHMR
[3] = molecular target: T1, AcrB in SMALP (styrene maleic acid lipid particle) nanodiscs (E. coli, UniProt P31224 1-1049); assay: native gel or EMSA; SMA-PAGE (native PAGE for SMALPs): AcrA constructs mixed with AcrB in SMALP nanodiscs; Novex Tris-Glycine 4-20% gels, 25 mM Tris pH 8.8, 192 mM glycine, 150 V, 4 °C, Coomassie stain; settings: both partners purified
T1 construct: AcrB, inner membrane RND transporter of the E. coli AcrAB-TolC pump; pET15b plasmid; embedded in native lipid SMALP nanodiscs; also called trimeric AcrB SMALPs; source: E. coli C43(DE3) ΔacrAB, extracted from membranes with 2.5% SMA 2000 into native nanodiscs, purified (nickel NTA)
T1 sequence: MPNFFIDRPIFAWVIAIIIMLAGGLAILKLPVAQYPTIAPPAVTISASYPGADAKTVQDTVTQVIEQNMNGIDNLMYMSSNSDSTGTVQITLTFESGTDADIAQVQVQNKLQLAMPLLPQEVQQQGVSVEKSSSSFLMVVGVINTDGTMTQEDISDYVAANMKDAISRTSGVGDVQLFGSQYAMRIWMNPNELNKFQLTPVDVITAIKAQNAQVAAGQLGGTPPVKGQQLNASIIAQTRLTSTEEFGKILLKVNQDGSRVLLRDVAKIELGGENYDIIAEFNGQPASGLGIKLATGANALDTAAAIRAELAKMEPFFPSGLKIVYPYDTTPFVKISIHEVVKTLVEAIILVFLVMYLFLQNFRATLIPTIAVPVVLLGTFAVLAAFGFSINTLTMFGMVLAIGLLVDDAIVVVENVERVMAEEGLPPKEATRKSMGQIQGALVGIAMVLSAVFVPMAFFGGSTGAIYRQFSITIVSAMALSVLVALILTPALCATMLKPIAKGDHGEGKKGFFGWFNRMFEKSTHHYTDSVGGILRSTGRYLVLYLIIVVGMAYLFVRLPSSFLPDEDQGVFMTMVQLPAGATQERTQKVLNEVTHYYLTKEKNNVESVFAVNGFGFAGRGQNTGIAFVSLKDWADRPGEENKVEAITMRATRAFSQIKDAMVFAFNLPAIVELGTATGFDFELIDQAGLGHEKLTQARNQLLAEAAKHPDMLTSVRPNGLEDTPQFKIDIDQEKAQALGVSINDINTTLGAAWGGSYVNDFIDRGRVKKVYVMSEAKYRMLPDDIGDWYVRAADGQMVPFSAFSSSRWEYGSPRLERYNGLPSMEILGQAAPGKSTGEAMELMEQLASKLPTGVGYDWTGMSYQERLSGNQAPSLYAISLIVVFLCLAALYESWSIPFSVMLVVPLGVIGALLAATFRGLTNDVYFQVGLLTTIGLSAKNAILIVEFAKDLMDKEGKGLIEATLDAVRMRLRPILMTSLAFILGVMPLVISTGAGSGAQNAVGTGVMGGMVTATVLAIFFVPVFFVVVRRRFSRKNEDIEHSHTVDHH

Row | Binder | stoichiometry N [1] | stoichiometry N [2] | stoichiometry N [3]
1 | AcrA^L (lipidated AcrA) (natural protein, lipidated at Cys25 (after cleavage of signal peptide 1-24), AcrA, periplasmic adaptor protein of E. coli; full length AcrA cloned from genomic DNA; signal peptide residues 1-24 is cleaved, the protein begins at lipidated Cys25; Cloned into pET28a with NcoI and XhoI; source: E. coli C43(DE3) ΔacrAB, solubilised from membranes with 1% DDM, purified (HiTrap, SEC) in 0.03% DDM) CDDKQAQQGGQQMPAVGVVTVKTEPLQITTELPGRTSAYRIAEVRPQVSGIILKRNFKEGSDIEAGVSLYQIDPATYQATYDSAKGDLAKAQAAANIAQLTVNRYQKLLGTQYISKQEYDQALADAQQANAAVTAAKAAVETARINLAYTKVTSPISGRIGKSNVTEGALVQNGQATALATVQQLDPIYVDVTQSSNDFLRLKQELANGTLKQENGKAKVSLITSDGIKFPQDGTLEFSDVTVDQTTGSITLRAIFPNPDHTLLPGMFVRARLEEGLNPNAILVPQQGVTRTPRGDATVLVVGADDKVETRPIVASQAIGDKWLVTEGLKAGDRVVISGLQKVRPGVQVKAQEVTADNNQQAASGAQPEQSKS | ≤ 5 | 2 | 
2 | AcrA^S (soluble AcrA lacking signal peptide and lipidation) (domain or fragment, AcrA of E. coli without signal peptide residues 1-24; Cys25 replaced by a starting methionine (Met25); not lipidated; pET28a construct; source: E. coli C43(DE3) ΔacrAB, cytosolic fraction, purified (HiTrap, SEC)) MDDKQAQQGGQQMPAVGVVTVKTEPLQITTELPGRTSAYRIAEVRPQVSGIILKRNFKEGSDIEAGVSLYQIDPATYQATYDSAKGDLAKAQAAANIAQLTVNRYQKLLGTQYISKQEYDQALADAQQANAAVTAAKAAVETARINLAYTKVTSPISGRIGKSNVTEGALVQNGQATALATVQQLDPIYVDVTQSSNDFLRLKQELANGTLKQENGKAKVSLITSDGIKFPQDGTLEFSDVTVDQTTGSITLRAIFPNPDHTLLPGMFVRARLEEGLNPNAILVPQQGVTRTPRGDATVLVVGADDKVETRPIVASQAIGDKWLVTEGLKAGDRVVISGLQKVRPGVQVKAQEVTADNNQQAASGAQPEQSKS |  |  | 1

From paper PMC10354078, “Conformational restriction shapes the inhibition of a multidrug efflux adaptor protein” (Nature Communications, 2023)
